Experimental data taken from PMC7684300 (Cell Discovery, 2020).

T1: human ORC1 (origin recognition complex subunit 1), full-length (human, UniProt Q13415 1-861)
T1 construct: Origin recognition complex subunit 1, human, full-length codon-optimized synthetic gene; No removal of the tag is described; HsORC1–5 was eluted from Streptactin beads with desthiobiotin; Samples for cryo-EM were mildly cross-linked with glutaraldehyde (GraFix); also called HsORC1; source: Sf21 insect cells, MultiBac baculovirus, co-overexpressed with the other ORC subunits; not shown: twin-strep …
T1 sequence (looked up): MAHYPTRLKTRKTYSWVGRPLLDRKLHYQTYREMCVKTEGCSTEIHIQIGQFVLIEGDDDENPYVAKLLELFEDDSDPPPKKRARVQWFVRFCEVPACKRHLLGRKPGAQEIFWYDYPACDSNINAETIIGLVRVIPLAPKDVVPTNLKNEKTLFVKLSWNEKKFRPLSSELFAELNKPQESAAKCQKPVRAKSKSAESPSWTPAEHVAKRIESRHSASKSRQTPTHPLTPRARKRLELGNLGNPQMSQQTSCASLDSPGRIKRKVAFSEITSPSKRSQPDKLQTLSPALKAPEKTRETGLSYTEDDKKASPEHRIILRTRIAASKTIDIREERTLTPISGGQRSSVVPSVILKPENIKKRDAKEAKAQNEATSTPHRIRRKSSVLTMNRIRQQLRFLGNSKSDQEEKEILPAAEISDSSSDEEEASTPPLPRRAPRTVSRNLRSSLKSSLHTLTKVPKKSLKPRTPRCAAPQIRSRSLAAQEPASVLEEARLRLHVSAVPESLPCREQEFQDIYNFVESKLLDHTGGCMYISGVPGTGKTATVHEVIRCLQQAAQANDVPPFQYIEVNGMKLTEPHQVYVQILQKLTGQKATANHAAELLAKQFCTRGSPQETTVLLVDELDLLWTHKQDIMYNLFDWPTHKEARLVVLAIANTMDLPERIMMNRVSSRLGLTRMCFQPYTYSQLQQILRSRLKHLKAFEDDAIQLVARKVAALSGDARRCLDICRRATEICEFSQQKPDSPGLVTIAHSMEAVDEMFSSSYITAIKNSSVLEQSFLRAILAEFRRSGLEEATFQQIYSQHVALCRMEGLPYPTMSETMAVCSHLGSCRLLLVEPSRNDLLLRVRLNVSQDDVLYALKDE

B1: human ORC5 (origin recognition complex subunit 5), full-length (natural protein, UniProt O43913 1-435, looked up)
chain: MPHLENVVLCRESQVSILQSLFGERHHFSFPSIFIYGHTASGKTYVTQTLLKTLELPHVFVNCVECFTLRLLLEQILNKLNHLSSSEDGCSTEITCETFNDFVRLFKQVTTAENLKDQTVYIVLDKAEYLRDMEANLLPGFLRLQELADRNVTVLFLSEIVWEKFRPNTGCFEPFVLYFPDYSIGNLQKILSHDHPPEYSADFYAAYINILLGVFYTVCRDLKELRHLAVLNFPKYCEPVVKGEASERDTRKLWRNIEPHLKKAMQTVYLREISSSQWEKLQKDDTDPGQLKGLSAHTHVELPYYSKFILIAAYLASYNPARTDKRFFLKHHGKIKKTNFLKKHEKTSNHLLGPKPFPLDRLLAILYSIVDSRVAPTANIFSQITSLVTLQLLTLVGHDDQLDGPKYKCTVSLDFIRAIARTVNFDIIKYLYDFL
notes: Origin recognition complex subunit 5, human, full-length codon-optimized synthetic gene; Samples for cryo-EM were mildly cross-linked with glutaraldehyde (GraFix); also called HsORC5; source: Sf21 insect cells, MultiBac baculovirus, co-overexpressed with the other ORC subunits; not shown: HA, C-terminal, kept
B2: human ORC2 (origin recognition complex subunit 2), full-length (natural protein, UniProt Q13416 1-577, looked up)
chain: MSKPELKEDKMLEVHFVGDDDVLNHILDREGGAKLKKERAQLLVNPKKIIKKPEYDLEEDDQEVLKDQNYVEIMGRDVQESLKNGSATGGGNKVYSFQNRKHSEKMAKLASELAKTPQKSVSFSLKNDPEITINVPQSSKGHSASDKVQPKNNDKSEFLSTAPRSLRKRLIVPRSHSDSESEYSASNSEDDEGVAQEHEEDTNAVIFSQKIQAQNRVVSAPVGKETPSKRMKRDKTSDLVEEYFEAHSSSKVLTSDRTLQKLKRAKLDQQTLRNLLSKVSPSFSAELKQLNQQYEKLFHKWMLQLHLGFNIVLYGLGSKRDLLERFRTTMLQDSIHVVINGFFPGISVKSVLNSITEEVLDHMGTFRSILDQLDWIVNKFKEDSSLELFLLIHNLDSQMLRGEKSQQIIGQLSSLHNIYLIASIDHLNAPLMWDHAKQSLFNWLWYETTTYSPYTEETSYENSLLVKQSGSLPLSSLTHVLRSLTPNARGIFRLLIKYQLDNQDNPSYIGLSFQDFYQQCREAFLVNSDLTLRAQLTEFRDHKLIRTKKGTDGVEYLLIPVDNGTLTDFLEKEEEEA
notes: Origin recognition complex subunit 2, human, full-length codon-optimized synthetic gene; Samples for cryo-EM were mildly cross-linked with glutaraldehyde (GraFix); also called HsORC2; source: Sf21 insect cells, MultiBac baculovirus, co-overexpressed with the other ORC subunits; anti-HA then Streptactin beads for HsORC1–5); not shown: 3x Flag, N-terminal, kept
B3: human ORC4 (origin recognition complex subunit 4), full-length (natural protein, UniProt O43929 1-436, looked up)
chain: MSSRKSKSNSLIHTECLSQVQRILRERFCRQSPHSNLFGVQVQYKHLSELLKRTALHGESNSVLIIGPRGSGKTMLINHALKELMEIEEVSENVLQVHLNGLLQINDKIALKEITRQLNLENVVGDKVFGSFAENLSFLLEALKKGDRTSSCPVIFILDEFDLFAHHKNQTLLYNLFDISQSAQTPIAVIGLTCRLDILELLEKRVKSRFSHRQIHLMNSFGFPQYVKIFKEQLSLPAEFPDKVFAEKWNENVQYLSEDRSVQEVLQKHFNISKNLRSLHMLLMLALNRVTASHPFMTAVDLMEASQLCSMDSKANIVHGLSVLEICLIIAMKHLNDIYEEEPFNFQMVYNEFQKFVQRKAHSVYNFEKPVVMKAFEHLQQLELIKPMERTSGNSQREYQLMKLLLDNTQIMNALQKYPNCPTDVRQWATSSLSWL
notes: Origin recognition complex subunit 4, human, full-length codon-optimized synthetic gene; No tag is named for this subunit; Samples for cryo-EM were mildly cross-linked with glutaraldehyde (GraFix); also called HsORC4; source: Sf21 insect cells, MultiBac baculovirus, co-overexpressed with the other ORC subunits

How the values were obtained:
[1] = target: T1, human ORC1 (origin recognition complex …); assay: cryo-EM structure; HsORC1–5 purified by two steps (anti-HA beads, Streptactin beads) after high-salt treatment, mild fixation by GraFix; map at 4.4 Å, State I 5.0 Å, State II 4.8 Å, four subgroups by local classification on ORC1-AAA+; settings: both partners purified
[2] = target: T1, human ORC1 (origin recognition complex …); assay: co-IP; anti-Flag immunoprecipitation (M2-flag affinity beads, eluted with 0.5 mg/mL flag peptide) of N-terminal Flag-tagged ORC2 from soluble lysate of insect cells co-overexpressing ORC1 to ORC6; lysis buffer A: 25 mM HEPES-KOH pH 7.6, 0.2 M KCl, 5 mM ATP, 10% glycerol, 0.05% NP-40; settings: partners not purified

| Binder | binding result [1] | binding result [2] |
| --- | --- | --- |
| B1 | binds | – |
| B2 | – | binds |
| B3 | binds | – |
